Experiments:
[1] = target: T1, 4H683-bN; assay: two-hybrid library CCNG1;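 further: natural log of median RNA to DNA barcode read ratio; higher means stronger binding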
T1 chain: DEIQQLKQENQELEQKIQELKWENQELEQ

[2] = target: T2, 4H457-bN; assay: two-hybrid library CCNG1;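 further: natural log of median RNA to DNA barcode read ratio; higher means stronger binding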
T2 chain: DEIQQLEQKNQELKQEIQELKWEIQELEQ

[3] = target: T3, 4H754-bN; assay: two-hybrid library CCNG1;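 further: natural log of median RNA to DNA barcode read ratio; higher means stronger binding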
T3 chain: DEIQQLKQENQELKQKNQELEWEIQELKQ

[4] = target: T4, 4H780-bN; assay: two-hybrid library CCNG1;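 further: natural log of median RNA to DNA barcode read ratio; higher means stronger binding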
T4 chain: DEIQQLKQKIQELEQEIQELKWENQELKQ

[5] = target: T5, 4H575-bN; assay: two-hybrid library CCNG1
T5 chain: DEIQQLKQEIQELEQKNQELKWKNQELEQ

[6] = target: T6, 4H3427-bN; assay: two-hybrid library CCNG1
T6 chain: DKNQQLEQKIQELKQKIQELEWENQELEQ

[7] = target: T7, 4H2673-bN; assay: two-hybrid library CCNG1
T7 chain: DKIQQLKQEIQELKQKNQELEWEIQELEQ

[8] = target: T8, 4H918-bN; assay: two-hybrid library CCNG1
T8 chain: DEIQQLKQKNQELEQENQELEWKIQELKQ

[9] = target: T9, 4H346-bN; assay: two-hybrid library CCNG1
T9 chain: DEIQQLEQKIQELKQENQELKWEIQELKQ

[10] = target: T10, 4H3926-bN; assay: two-hybrid library CCNG1
T10 chain: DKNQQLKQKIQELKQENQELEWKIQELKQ

[11] = target: T11, 4H968-bN; assay: two-hybrid library CCNG1
T11 chain: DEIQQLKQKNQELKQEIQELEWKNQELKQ

[12] = target: T12, 4H4073-bN; assay: two-hybrid library CCNG1
T12 chain: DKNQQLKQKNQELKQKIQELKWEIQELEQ

[13] = target: T13, 4H2627-bN; assay: two-hybrid library CCNG1
T13 chain: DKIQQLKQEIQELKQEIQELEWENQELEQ

[14] = target: T14, 4H3010-bN; assay: two-hybrid library CCNG1
T14 chain: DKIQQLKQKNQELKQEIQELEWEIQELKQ

[15] = target: T15, 4H953-bN; assay: two-hybrid library CCNG1
T15 chain: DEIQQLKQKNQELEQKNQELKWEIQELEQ

[16] = target: T16, 4H855-bN; assay: two-hybrid library CCNG1
T16 chain: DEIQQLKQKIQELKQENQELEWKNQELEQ

[17] = target: T17, 4H797-bN; assay: two-hybrid library CCNG1
T17 chain: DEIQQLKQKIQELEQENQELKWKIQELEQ

[18] = target: T18, 4H349-bA; assay: two-hybrid library CCNG1
T18 chain: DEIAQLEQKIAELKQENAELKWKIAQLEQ

[19] = target: T19, 4H2702-bN; assay: two-hybrid library CCNG1
T19 chain: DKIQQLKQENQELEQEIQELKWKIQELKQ

[20] = target: T20, 4H2586-bN; assay: two-hybrid library CCNG1
T20 chain: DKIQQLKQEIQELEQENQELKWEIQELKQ

[21] = target: T21, 4H3112-bN; assay: two-hybrid library CCNG1
T21 chain: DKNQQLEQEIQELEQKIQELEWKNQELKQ

[22] = target: T22, 4H3628-bH; assay: two-hybrid library CCNG1
T22 chain: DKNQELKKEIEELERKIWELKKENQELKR

[23] = target: T23, O4-bH; assay: two-hybrid library CCNG1
T23 chain: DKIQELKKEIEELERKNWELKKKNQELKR

[24] = target: T24, O8-bH; assay: two-hybrid library CCNG1
T24 chain: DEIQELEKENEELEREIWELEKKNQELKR

[25] = target: T25, O16-bH; assay: two-hybrid library CCNG1
T25 chain: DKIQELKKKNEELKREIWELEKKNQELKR

[26] = target: T26, O9-bH; assay: two-hybrid library CCNG1
T26 chain: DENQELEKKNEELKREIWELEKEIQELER

[27] = target: T27, O15-bH; assay: two-hybrid library CCNG1
T27 chain: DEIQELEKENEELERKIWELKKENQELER

[28] = target: T28, O3-bH; assay: two-hybrid library CCNG1
T28 chain: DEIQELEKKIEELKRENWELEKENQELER

[29] = target: T29, O6-bH; assay: two-hybrid library CCNG1
T29 chain: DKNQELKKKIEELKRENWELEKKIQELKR

[30] = target: T30, O5-bH; assay: two-hybrid library CCNG1
T30 chain: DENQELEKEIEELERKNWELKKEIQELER

[31] = target: T31, O7-bH; assay: two-hybrid library CCNG1
T31 chain: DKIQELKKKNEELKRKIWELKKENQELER

[32] = target: T32, O2-bH; assay: two-hybrid library CCNG1
T32 chain: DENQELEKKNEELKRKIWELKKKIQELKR

[33] = target: T33, O9; assay: two-hybrid library CC0; conditions: mean of both orientations
T33 chain: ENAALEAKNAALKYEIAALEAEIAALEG

[34] = target: T34, O2; assay: two-hybrid library CC0; conditions: mean of both orientations
T34 chain: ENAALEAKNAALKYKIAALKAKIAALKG

[35] = target: T35, O3; assay: two-hybrid library CC0; conditions: mean of both orientations
T35 chain: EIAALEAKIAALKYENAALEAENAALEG

[36] = target: T36, O16; assay: two-hybrid library CC0; conditions: mean of both orientations
T36 chain: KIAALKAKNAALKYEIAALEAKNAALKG

[37] = target: T37, O4; assay: two-hybrid library CC0; conditions: mean of both orientations
T37 chain: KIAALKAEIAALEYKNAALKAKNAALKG

[38] = target: T38, O6; assay: two-hybrid library CC0; conditions: mean of both orientations
T38 chain: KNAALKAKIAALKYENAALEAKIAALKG

[39] = target: T39, O5; assay: two-hybrid library CC0; conditions: mean of both orientations
T39 chain: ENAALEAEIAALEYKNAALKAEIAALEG

[40] = target: T40, O8; assay: two-hybrid library CC0; conditions: mean of both orientations
T40 chain: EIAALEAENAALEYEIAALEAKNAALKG

[41] = target: T41, O7; assay: two-hybrid library CC0; conditions: mean of both orientations
T41 chain: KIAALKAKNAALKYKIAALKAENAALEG

[42] = target: T42, 4H883-bH; assay: two-hybrid library CCNG1
T42 chain: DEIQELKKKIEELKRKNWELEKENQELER

[43] = target: T43, 4H3189-bA; assay: two-hybrid library CCNG1
T43 chain: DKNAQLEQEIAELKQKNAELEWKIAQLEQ

interaction score [1]	interaction score [2]	interaction score [3]	interaction score [4]	interaction score [5]	interaction score [6]	interaction score [7]	interaction score [8]	interaction score [9]	interaction score [10]	interaction score [11]	interaction score [23]	interaction score [24]	interaction score [25]	interaction score [26]	interaction score [28]	interaction score [29]	interaction score [30]	interaction score [31]	interaction score [32]	Binder	other results
0.147	-0.912	-1.88	-1.16	-1.1	0.526	-1.47	-1.12	1.97	0.209	-1.31										DKIQQLKQEIQELEQENQELKWEIQELKQ [4H2586-bN]	interaction score [22]: 1.41; interaction score [12]: -0.362; interaction score [13]: -0.115; interaction score [14]: 0.0264; interaction score [15]: -1.01; interaction score [16]: -0.916; interaction score [17]: -0.469; interaction score [19]: -0.448; interaction score [20]: 0.806; interaction score [21]: -1.32
											0.39	-1.78	1.45	0.497	-0.0193	1.63	-1.91	1.56	-1.83	DENQELEKEIEELERENWELEKKIQELKR [O14-bH]	interaction score [27]: 1.43
-0.185	-1.44	-1.21	-0.619	0.336	-0.336	-0.336	-0.935	-1.49	-0.972	-0.499										DKIQQLKQEIQELKQEIQELEWENQELEQ [4H2627-bN]	interaction score [12]: 0.24; interaction score [13]: -1.18; interaction score [14]: -0.478; interaction score [15]: -1.1; interaction score [16]: -0.307; interaction score [17]: -2.2; interaction score [19]: -0.837; interaction score [42]: 0.737; interaction score [21]: -0.418; interaction score [43]: -2.27
											0.0481	0.7	0.441	-0.421	1.41	1.06	-0.611	1.17	-1.39	DKIQELKKKNEELKREIWELEKKNQELKR [O16-bH]	

The next lines start with the binder.

Binder	interaction score [1]	interaction score [2]	interaction score [3]	interaction score [4]	interaction score [5]	interaction score [6]	interaction score [7]	interaction score [8]	interaction score [9]	interaction score [10]	interaction score [11]	interaction score [23]	interaction score [24]	interaction score [25]	interaction score [26]	interaction score [28]	interaction score [29]	interaction score [30]	interaction score [31]	interaction score [32]	other results
DENQQLKQKIQELEQKIQELEWKNQELEQ [4H1831-bN]	-2.14	-1.9	-0.46	-1.02	-0.248	-0.445	-0.269	-0.624	0.142	-0.39	-0.157										interaction score [12]: 0.223; interaction score [13]: 1.7; interaction score [14]: -0.741; interaction score [15]: -0.677; interaction score [16]: -0.282; interaction score [17]: -0.203; interaction score [18]: -1.73; interaction score [19]: -0.111; interaction score [20]: -0.466; interaction score [21]: -0.567
DKNQELKKKIEELKRKNWELKKEIQELER [O13-bH]												-0.471	0.569	-1.44	-0.0315	0.496	-0.527	0.194	-0.211	-2.29	interaction score [27]: 1.51
DEIQELEKENEELERKIWELKKENQELER [O15-bH]												-1.19	0.416	1.62	-0.267	-0.38	-0.0351	-1.6	1.73	-0.549	interaction score [27]: 0.268
KIAALKAKNAALKYEIAALEAKNAALKG [O16]																					interaction score [33]: -2.65; interaction score [34]: -2.67; interaction score [35]: -2.69; interaction score [36]: -2.76; interaction score [37]: -2.71; interaction score [38]: -1.77; interaction score [39]: -2.68; interaction score [40]: 0.382; interaction score [41]: -2.48

Source: PMC10397247
